The data set in a line: label from the status in PepcDB records.
For “MSHSIEQLSINTIRTLSIDAIEKANSGHPGMPMGAAPMAYTLWTQFMKHNPNNPTWFNRDRFVLSAGHGSMLLYSLLHLSGYDVTMDDLKNFRQWGSKTPGHPEYGHTAGVDATTGPLGQGIATAVGMAMAERHLAAKYNRDAYNIVDHYTYAICGDGDLMEGVSAEASSLAAHLQLGRLVVLYDSNDISLDGDLNRSFSESVEDRYKAYGWQVIRVEDGNDIEAIAKAIEEAKADEKRPTLIEVRTTIGFGSPNKSGKSASHGSPLGVEETKLTKEAYAWTAEQDFHVAEEVYENFRKTVQDVGETAQAEWNTMLGEYAQAYPELANELQAAMNGLLPEGWEQNLPTYELGSKAATRNSSGAVINAIAESVPSFFGGSADLAGSNKTYMNNEKDFTRDDYSGKNIWYGVREFAMGAAMNGIALHGGLKTYGGTFFVFSDYLRPAIRLAALMQLPVTYVFTHDSIAVGEDGPTHEPIEQLAALRAMPNVSVIRPADGNESVAAWRLALESTNKPTALVLTRQDLPTLEGAKDDTYEKVAKGAYVVSASKKETADVILLATGSEVSLAVEAQKALAVDGVDASVVSMPSMDRFEAQTAEYKESVLPKAVTKRFAIEMGATFGWHRYVGLEGDVLGIDTFGASAPGEKIMEEYGFTVENVVRKVKEML”, the protein production result is given as “not failed”.
Next, “MTDLWLTLVNSVNAALGEVHVMTAWEALAVVLAMAYLLLAMKASVWCWAAAFTSTAIYTVLFWKVALLMESMLNIYYMGMALYGYWLWTQGGDKHQGVKVTTWPLKTHLKLIAATTLVSLGIGHGMATFTQASFPYLDAATTCFAVMTTYLVAKKVLENWLYWVVIDLVSIYLYLSKGLMLTSLLFVLYVGLAVVGYFLWRTALAESRLNLNGERAAKLLG”: “failed”; “MSNTIIRSLCVVLFGIAAVPGIADAQSSAYTNSGAELFAGPAPDYPVVAQLPPGTAVDVFGCLSDYSWCDVALPGVRGWIDAQQLDYPYQGNYVPLLEYGAIIGVPVTGFAIGTYWDRYYRHRPWFHDRDRWEHRAEPRVGPGGMPPAYYGRPQPGWPAQREPRGAPPVQHDARPSATRGGWNGPNRAPAPQVAPAPARAPAPMPAPAPMPAPAPIPGAAGVRQPAPPPAQPAQPAPSGGAVQMMPPAHQGGGGYGGRPQGGGDGGGNHGGGGGRGRSDEFRR”: “failed”; “MRAKITYAVTAAVLVVYFVLVGSRGVLLIQNGTLVTVTFGVAVLILPVIGVWFLWKNTQFVRKANALAAELDAEGGLPVDELRRTPGGRIDRDSADEVFARRKAETEDAPGDWRSWFRLAVAYHDARDTPRARKAMQRAIALHEGRPVEA”: “failed”.
As to “MLIKRLAFAIMTLVIMTSAGCGFKLQRSYQIPEQLNQLSLSSSDEYSELTRLVRERLRLNNVKIVDAANDVPVLRLITDSLERSTLSLYPTGNVAEYELIYFVEFAVALPGKEAQPFKIEIRRDYLDDPRTALAKSREMELLVKEMRIQAADRILQSMASTEVNLEHHHHHH”, the protein production entry is “not failed”.
For the sequence “MRVAVVGATGAVGREILKVLEARNFPLSELRLYASPRSAGVRLAFRGEEIPVEPLPEGPLPVDLVLASAGGGISRAKALVWAEGGALVVDNSSAWRYEPWVPLVVPEVNREKIFQHRGIIANPNCTTAILAMALWPLHRAFQAKRVIVATYQAASGAGAKAMEELLTETHRFLHGEAPKAEAFAHPLPFNVIPHIDAFQENGYTREEMKVVWETHKIFGDDTIRISATAVRVPTLRAHAEAVSVEFARPVTPEAAREVLKEAPGVEVVDEPEAKRYPMPLTASGKWDVEVGRIRKSLAFENGLDFFVVGDQLLKGAALNAVQIAEEWLKGA”, the protein production result is given as “not failed”.
Take “ENGRYEYIVIGSEAAGVGLVRELTAAGKKVLAVDKSKEKIELLEDEGFDAVIADPTDESFYRSLDLEGVSAVLITGSDDEFNLKILKALRSVSDVYAIVRVSSPKKKEEFEEAGANLVVLVADAVKQAFMDKIKKMETL”: the protein production entry is “not failed”.
Regarding “MFIYFPKNYVWSMSTVIAATHGGSIGEIDEFCRPLLDKSSDDADVGTVEFLHAWIGGADKLIKMAEQDLEKNRELSAAKKYYRAALYYLIAERMQEQGHPERLKVYKRYLELAELYRKYKKDDVKRVEIPYQNSHLSAIYAKGKTTDEKQAIVVMMNGLDSTKELMSYCPLADELVERGISVLMVDQPGTGEAIRLQDLRAVYNSEIWASPIVDWLCEQPEIDQHRIAAFGISLGGYYCPRAVAFEPRFCCAAIWGANHDWRAVQHARLKREGENPVPHYWKHVEWVFGAQDQKEFFEIAENMHLNGVLDRIKVPFLVTHGEKDRQIPLKYAYETYDQLINSPDKELLVIDDEMGGVEHSSIDNPLNAGAYIADWLAEHLNGKTSK”, the protein production result is recorded as “failed”.
With “MDFSKAFGLVYKALDYRSLRQDMIASNIANVDTPFYRPKDLDFESVLAKKKAEIFENQSSKVLPLAHTNPRHLDFENSAKDGASLFFRDGHLAKNDGNSVDLDIETSEMGKNSTMYLALSSALKKYRGVINYAIDSSKNL”, the protein production entry was “failed”.
Then “MIIGCSASQKLAASVADLLDEPLCPVETRKFPDGERYIRVKEEVEGEVTVVQSTGYPQDENLMELLFMIENLKDLGADYVRAAIPYFGYGRQERRFKSGEAVSAKIVAHLLEAAGADEIVTVNLHENCLSEFFRVPVRELSAMPLIAEHISFLDDPVIIAPDKGALGHAREVSDILGCECDYMEKVRISPEVVETRVSDLDVEGKDAVVVDDIISTGGTIVNAAGILGKCGASSITVCCVHPVLVEDALLKIFSAGVERVIATDTLKSDVSEISVAPLIADVMKD”, with “failed”; and “FAMESYFKGDSGEAELLAVAHKVQSDAWALQKAAGIAVIGLDGTLYDQVLDTITWLGAIPPRFKHLSGLQRYYAMARGGAALDMSKFFDTNYHYLVPELGPDVLGPATAAGAPLQPDFSGPLDKLARGQAVVGRERAVPILIGPVTFVSLSRGCELPLDQAVARLLPTYCALLQQLAAAGAPEVQLHEPVLATSEGAGMRAEFETAYAQMAQAAGSVPLHLVTYYDDLGAAYPWAVQLPVAAVTLDFLGPPGAAVPSQTLALLQQHGFPADKRLGAGVVDGRSVWKDDGTAVALLRALLDTGAVSSDRLVVTSSAPLQHLPYDLGLELEAPKTPEAEPHLPPALAARLGFAKQKVEEIVSVARLAASPAAAAAAAGHGAVVQLQRLQQGKGVEDHTAD”, with “failed”.
Then “ITERHLIEESLKESQQRWEFALEGSGDGIWDWGVMEDRLFLSARLQEMFGYARGEMGESMEQASSFILKEDRARVLSTLYRFLKEGEGQYADEFRVNCKEGGYRWIFSRGMVVKRNAQGEAARMIGIFTDI”, with “failed”.
Then “MATFRKRGKYWEYRVKYTDSAGKQLVASHGGYRLKSSAQDAAEAVEDDLKRGGDPSKQDVLLLDYWDQWAEAYRINGKSINTVYRYKLFRKHLKSRFDGRKLNSIRPIEWQKFINDFAAGKDRKEKTTRKRPRERSKDIVTKMNSYVRGMVKAAINERILFSDFTFGTKTSGVRSSGKVKVLDSRDFAKVKAIAIERASYRNIGALAVYIGSMTGMRISEVLALTWPDIDTKLCVIHVTRSWDHLYGTGFKPTKTDSSVRDIEISPSVIELLNKIHQEQAASYLRTGYRDEDQMIMRDPRHNVITDSACNKALHVIQNKAGIPEDKQITFHGLRHSHVSYLISKGVDIYYISKRLGHSDVTITMKVYGHLLDSQRKQEAHKAVLFMDQI”, with “failed”; and “AEGQTVYWHAWGGDPKINAFIAWVGEQARARHGFMLEQVKLADTTEAVARVLAEKQAGRTEGGAVDLIWINGENFAAMKAQGLLSEPFAESLPNWTHVDVAGKPAVVTDFTEPTGGLESPWAMAQLVFEHDSARLPAPPRTLAQLLAWIEVNPGRFTFPQPPDYLGTTFLKQVLYGVIEDPGLLQKPVDPATYETVTAPLWTWLDRAEPYLWREGRAYPANEPALGQLFADGEIAISFAFNPGRASAAIAAGELPETVRTFTLEGGTIGNASFVAIPFNAAHAAGAKVIANLLLDPEVQARAQDPAVLGFQTVLDVAALPEPDRARFAAL”, with “failed”.
For “MFRSFPVDSPHVYLRWVAISISQPVIRHGSSVVFVGGTPASSFLWPLCINRQNQIQTHFLKSFRIQEFLPRKSQCSRVTTIKETIFYPICLKSSKQIIVNATTFQCINYLLPIQFAYRNEPFRKFFATRIDFSSNQIERTNHSNRI”, the protein production entry is recorded as “failed”.
Then “MSNAFEYLRTYVESTTETDAAVARAREDAAEFGLPAPDEMTGQLLTTLAATTNGNGSTGAIAITPAAGLVGLYILNGLADNTTLTCIDPESEHQRQAKALFREAGYSPSRVRFLLSRPLDVMSRLANDSYQLVFGQVSPMDLKALVDAAWPLLRRGGALVLADALLDGTIADQTRKDRDTQAARDADEYIRSIEGAHVARLPLGAGLTVVTKALEHHHHHH”, with “not failed”.

Values taken from a protein production outcome set (Wang et al. 2014).
